Experimental data published in the nanobody polyreactivity screen of Harvey et al. (2022).

Test: yeast display, Sf9 membrane polyspecificity reagent, FACS + sequencing; frameworks hold sequencing errors
How it was run: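 Polyreactivity labels are assigned by the sorting gate from which each nanobody was recovered. The gates were low and high (top ~1%), set on anti-HA fluorescence for expression and streptavidin fluorescence for reagent binding. Before sorting, galactose-induced (36–48 hours) yeast display cells were stained for 1 hour at 4 °C with 10% biotinylated, detergent-solubilized Sf9 membrane reagent.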

Row | Sequence | polyreactivity (PSR sort gate)
1 | QVQLVESGGGLVHAGGSLRLSCAASGINFFPYAMGWYRQAPGKERELVASINISDSSTYYADSVKGRFTISRDNAKNTVYLQMNSLKPEDTAVYYCAADNRGDSWYWHGYWGQGTQVSVSS | low polyreactivity
2 | QVQLVESGGGLVQAGGSLRLSCAASGFTSYGYAMGWYRQAPGKERELVAAISRSGGSTYYADSVKGRFTISRDNAKNTVYLQMNSLKPEDTAVYYCAVAVGREYVYRYYYWGQGTQVTVSS | high polyreactivity
3 | QVQLVESGGGLVQAGGSLRLSCAASGIIFGIYDMGWYRQAPGKERELVAAIRRSGGSTYYADSVKGRFTISRDNAKNTVYLQMNSLKPEDTAVYYCAATRHSRVRGGDYWGQGTQVTVSS | low polyreactivity
4 | QVQLVESGGGLVQAGGSLRLSCAASGNIFGVDAMGWYRQAPGKERELVATITTGGSTYYADSVKGRFTISRDNAKNTVYLQMNSLKPADTAVYYCAADVGGGNYVYYGNDYDDGYWGQGTQVTVSS | low polyreactivity
5 | QVQLVESGGGLVQAGGSLRLSCAASGRIFSFYAMGWYRQAPGKERELVAAITYTDGSTYADSVKGRFTISRDNAKNTVYLQMNSLKPEDTAVYYCATRYRWTPYDYWGQGTQVTVSS | low polyreactivity
6 | QVQLVESGGGLVQAGGSLRLSCAASGRTLSGYVMGWYRQAPGKERELDAAIDWSGGTTYYADSVKGRFTISRDTAKNTVYVQMNSLKPEDTAVYYCAAEVLSWLYWPYYYWGQGSQVTVSS | high polyreactivity
7 | QEQLVESGGGIVQAGGTLRLSGADSGSIFVKNAMGWYRQAHGKERQWVARITYSGGSTYYADSVKGRFTISRDNAKNTVYLQMNSLKPEDTAVYYCAARYWYFPQPYYPGNDYWGQGTQVTVSS | high polyreactivity
8 | QVQLVESGGGLVQAGGSLRLSCAASGRIFGIYAMGWYRQAPRKERELVASITDGTITNYADSVKGRFTISRDNAKNTVYLQMNSLKPEDTAVYYCAAGTQAHAYVVRPIEMDYWGQGTQVTVSS | low polyreactivity
9 | QVQLVESGGGLVQAGGSLRLSCAASGYILHPNAMRWYRQSPGKDRELVAAIRWRGGSTYYADSVKGRFTISRDNAKNTVYLQMNSLKPEDTAVYYCAADKSKYRAFDYWGQGTQVTVSS | high polyreactivity
10 | QVQLVESGGGLVQAGGSLRLSCAASGRTFKLYAMGWYIQAPGKERELVAAISIRGTSTYYADSVKGRFTISRDNAKNTVYLQMNSLKPEDTAVYYCAAEDRYAYYMVRWQCYYYWGQGTQVTVSS | low polyreactivity
11 | QVQLVESGGVLVQAGGSLRLSCAASGFTFDYYAMGWYIPAPGKERELVASISYNGGITNYADSVQGRFTISRDNAKNTVFLHMHSLKPEDTAVYYWNAVPLYYWRFDYWGQGTQVTVSS | low polyreactivity
12 | QVKLVESGRGFVQAGGSLRISCAASGITFRYNAMGWYRQAPGKERELVAAITFSGGSTYYSDSVKGRFTISRDNAKNTVYLQMNILKPEDTAVYYCAKLGSTSTRGNYDYWGQGTQVTVSS | low polyreactivity
13 | QVQLVESGGGLVQAGGSLRLSCAASGSIFGYNAMGWYRQAPGKERELVADISSGDSTNYADSVKGRFTISRDNAKNTVYLQMNSLKPEDTAVYYCAADFTYQGSSANDYWGQGTQVTVSS | low polyreactivity
14 | QVQLVDSGGGLVQAGGSLRLSCAASGRTFSVNAMGWYRQAPGKERELVAAISSAGSTNYADSVKGRFTISRDNAKNTVYLQMNSLKPEDTAVYYCAAGFSPGNYDAPTLAFDYWGQGTQVTLSS | low polyreactivity
15 | QVQLVESGGGLVQAGGSLRLSCAASGSTFGHYVMGWYRQAPGKERELVAVISSSGGRTYYADSVKGRFTISRDNAKNTVYLQMNSLKPEDTAVYYCAAGSISTPGRGVDKPDPYDYWGQGTQVTVSS | low polyreactivity
16 | QVQLVESGGGLVQAGGRLRLSCAASAFTFYYYAMGWYRPAPGKERELVAAISWSGGSTYYADSVKGRFTFSRDNAKNTVYLQMNSLKPEDTAVYYCAADVYKQYGYYYWGQGTQVTVSS | high polyreactivity
17 | QVQLVESGGGLVQSGGSIRLSCAASGSTFDHYTMGWYRQAPGKERELVAAINRIGDSTYYADSVKGRFTISRDNAKNTVYLQMNSLKPEDTAVYDCAARHVPRFNKYGYWGQGTQVNVSS | high polyreactivity
18 | QVQLVESGGGLVQAGGSLRLSCAASGSIFPSYAMGWYRQAPGKERELVAAISSRGGSTYYADSVKGRFTISRDNAKNTVYLQMNSLKPEDTAVYYCAADWSYYRRHFDYWGQGTQVTVSS | high polyreactivity
19 | QVQLVESGGGLVQAGGILRLSCAASGSILTDNAMGWYRQAPGKERELVAAITSSGNTNYADSVKGRFTISRDNAKNTVFLQMNSLKPEDTAVYYCARDLREWGQGTQVTVSS | low polyreactivity
20 | QVQLVESGGGLVQAGGSLRLSCAASGRTFGGYAMGWYRQAPGKERELVAAISSGGGTYADSVKGRFTISRDNAKNTVYLQMNSLKPEDTAVYYCAAGSRWYWAYKPTVHYYYWGQGTQVTVSS | high polyreactivity
21 | QVQLVESGGGLVQAGGSLRLSCAASGRIFWAYTMGWYRQAPGKERELVAAITGSGGSTYYADSVKGRFTISRDNAKNTVYLQMNSLKPEDTAVYYCAADIGYIRLPRGREYDYWGQGTEVTVSS | high polyreactivity
22 | QVHLVESGGGLVQAGGSLRLSCAASGRTFVINAMGWYRQAPGKERELVAAITWGGGSTYYADSVKGRFTISRDNAKNTVYLQMNSLKPEDTAVYYCATSYSVQYGGSGYYWGQGTQVTVSS | low polyreactivity
23 | QVQLVESGGGLVQAGGSLRLSCAASGRIFWYNAMGWYRQAPGKQRELVAAITSGGRTYYADSVKGRFTISRDNAKNTVYLQMNSLKPEDTAVYYCAATYPSYTYDYWGQGTQVTVSS | low polyreactivity
24 | QVQLVESGGGLVQAGGSLRLSCAASGRIFYPNAMGWYRQAPGKERELVAAITGRGGITYYADSVKGRFTISRDNAKNTVYLQMNSLKPEDTAVYYCNAAAYYPTNYGGYLFEYWGQGTQVTVSS | low polyreactivity
25 | QVQLVESGGGLVQAGGSLRLSCAASGRIFAPYAMGWYRQAPGKERELVAAISWRVGSTYYADSVKVRFTISRDYAKNTVYLQMNSLKPDDTAVYYCAARPSYRYDYLGQGTQVTVSS | high polyreactivity
26 | QVQLVESGGGLVQAGGSLRLSCAASGSTFVRYAMGWYRQEPGKERELVAAISKSGGSTYYADSVKGRFTISRDNAKNTVYLQMNSLKPEDTAVYYCNADVYKNSKFRIMGYWGQGTQVTVSS | low polyreactivity
27 | QVQIVESGGGLVQAGGSLRLSSAASGSIFPAYAMGWYSLAPWKERELVASITGSGGTTYYADSVKGRFTISRDNAKNTGYLQMNSLKPVDTADNYCNARYYVYSATVDRYGYWGQGSQVTVSS | high polyreactivity
28 | QVQLVESGGGLVQAGGSLRLSCAASGRTFKYYAMGWYRQAPGKERELVAAISYSGGSTYYADSVKGRFTISRDNAKNTVYLQMNSLKPEDTAVYYCAARFTRYYSGGDQKYDYWGQVTQVTVSS | high polyreactivity
29 | QVQLVESGGGLVQAGGSLRLSCAASGSTFYYKSMGWYRQAPGKERELVAAITFTGGSTYADSVKGRFTISRDNAKNTVYLQMNSLIPEDTAVYYCAATIQGHDYLGTGYDYWGQGTQVTVSS | low polyreactivity
30 | QVQLVESGGGLVQAGGSLRLSCAASGSILALYTMGVYRQAPGKERELVASISSGGRTNYADSVKGRFTISRDNAKNTVYLQMNSLKPEDTAVYYCARSRLGRAYGRYDYWGQGTQVTVSS | low polyreactivity
